Series [1] has as its target Est22 S188A/D287A (bacterial, deep-sea sediment metagenomic library). The series can be described thus: SEC; gel filtration profiles of wild type and mutants, Superdex 200 16/600 (panel C); column of panel E not given.
For series [2], the target named is Est22 (wild type) (bacterial, deep-sea sediment metagenomic library). The series is described as above.
For series [3] the target is unchanged. Briefly: SEC-MALS; 20 ul of 1 mg/ml Est22 on a wtc030s5 column (Wyatt), 20 mM Tris-HCl, 100 mM NaCl, pH 7.4. For orientation: Size exclusion chromatography separates by hydrodynamic size, large species first.
The target in series [4] is Est22 S188A (bacterial, deep-sea sediment metagenomic library). The series can be described thus: SEC; gel filtration profiles of wild type and mutants, Superdex 200 16/600 (panel C); column of panel E not given.
Series [5] has as its target Est22 S188A/H317A (bacterial, deep-sea sediment metagenomic library). The series is described as above.
Substrate in the series “purified protein”: CC(=O)Oc1ccc([N+](=O)[O-])cc1
Briefly: purified protein. It counts as biochemical, uncultured bacterium. The following applies: 100 mM Tris-HCl, pH 7.5, 40 °C.

Series [6] concerns the molecule itself. The series can be described thus: SEC; gel filtration profiles of wild type and mutants, Superdex 200 16/600 (panel C); column of panel E not given.

As for Est22 S188A/D287A (enzyme), in series [1], the stoichiometry N (as a rule, the number of molecules, sites or subunits per partner or assembly) was 2. Turning to Est22 (wild type) (enzyme), the stoichiometry N in series [2] and in series [3] was 2 in each case.

Consider Est22 S188A (enzyme), for which the stoichiometry N in series [4] was found to be 2. On to Est22 S188A/H317A (enzyme), for which, in series [5], the stoichiometry N amounted to 2.

B1: Est22 (uncultured bacterium) (protein)
chain: MTNKIAEDPRIDPRIKAIFSGMDLGGGGDVESREAMLEAASSEEATAVRDGLRVFLDACDNEEIAPSAGLKIEDYEFTSEPDGNIAKIQYIRPDSTDKLPCVYYIHGGGMQSLSCYYGNYRAWGKIIASNGVAVAMVEFRNALVPSALPEVAPYPAGLNDCVSGVKWVASHADELGIDASRIIIAGESGGGNLTLAAGLRLKQEGSQDLIQGLYALCPYIAGSWPSEDSPSSTENNGILLDLHNNQGAMGYGIEAYEMRDPLAWPGFATEEDVSGLVPTFISVNECDPLRDEGINFYRLLLRAGVSAKCRQVMGTIHGTEIFPIACPDVSRDTAASIANFCKGG
notes: full length 1-344 aa, N-terminal 6xHis tag (pET28b), E. coli Rosetta (DE3)
With B1, in the series “purified protein”, the Km (usually the concentration of substrate that gives half-maximal velocity) stood at 489.9 µM and the kcat (commonly the maximal rate divided by the concentration of active sites) was 3160 s⁻¹.

B2: Est22 S170A (enzyme)
chain: MGSSHHHHHHHSSGLVPRGSHMTNKIAEDPRIDPRIKAIFSGMDLGGGGDVESREAMLEAASSEEATAVRDGLRVFLDACDNEEIAPSAGLKIEDYEFTSEPDGNIAKIQYIRPDSTDKLPCVYYIHGGGMQSLSCYYGNYRAWGKIIASNGVAVAMVEFRNALVPSALPEVAPYPAGLNDCVSGVKWVAAHADELGIDASRIIIAGESGGGNLTLAAGLRLKQEGSQDLIQGLYALCPYIAGSWPSEDSPSSTENNGILLDLHNNQGAMGYGIEAYEMRDPLAWPGFATEEDVSGLVPTFISVNECDPLRDEGINFYRLLLRAGVSAKCRQVMGTIHGTEIFPIACPDVSRDTAASIANFCKGG
For B2, the “stoichiometry N” value in series [6] was found to be 2.

The values are drawn from paper PMC4916508, “Structural insights of a hormone sensitive lipase homologue Est22” (Scientific Reports, 2016).
